Data published in patent US9744188B2, “Methods of promoting neuronal outgrowth by gypican 2 that binds to receptor protein tyrosine phosphatase sigma” (PRESIDENT AND FELLOWS OF HARVARD COLLEGE, priority 2011, dated 2017).
“Also recorded” adds a separate entry of the source. Where two headings read alike, the source gives them in different places.

Assays:
[1] = molecular target: Mouse RPTPσ sEcto-Fc (mouse) (UniProt B0V2N1); assay: solid phase binding assay, immobilised mouse RPTPσ sEcto-Fc, bound AP activity; Kd from the binding curve, one-to-one binding assumed; Scatchard inset
[2] = molecular target: RPTPσ on mouse dorsal root ganglion (DRG) neurons (mouse) (UniProt B0V2N1); assay: cell-based or functional assay
mouse RPTPσ sEcto-Fc = molecular target: T1, mouse RPTPσ sEcto-Fc (Mus musculus, UniProt B0V2N1); assay: Solid phase binding assay: proteoglycan-AP fusion proteins on immobilised RPTPσ sEcto-Fc; details: neurocan pre-treated with chondroitinase ABC; glypican-2 pre-treated with heparitinase III
T1 construct: made in house; host or cells: transiently transfected 293T cells
T1 sequence (B0V2N1 30-851 isoform B0V2N1-3 limits assumed): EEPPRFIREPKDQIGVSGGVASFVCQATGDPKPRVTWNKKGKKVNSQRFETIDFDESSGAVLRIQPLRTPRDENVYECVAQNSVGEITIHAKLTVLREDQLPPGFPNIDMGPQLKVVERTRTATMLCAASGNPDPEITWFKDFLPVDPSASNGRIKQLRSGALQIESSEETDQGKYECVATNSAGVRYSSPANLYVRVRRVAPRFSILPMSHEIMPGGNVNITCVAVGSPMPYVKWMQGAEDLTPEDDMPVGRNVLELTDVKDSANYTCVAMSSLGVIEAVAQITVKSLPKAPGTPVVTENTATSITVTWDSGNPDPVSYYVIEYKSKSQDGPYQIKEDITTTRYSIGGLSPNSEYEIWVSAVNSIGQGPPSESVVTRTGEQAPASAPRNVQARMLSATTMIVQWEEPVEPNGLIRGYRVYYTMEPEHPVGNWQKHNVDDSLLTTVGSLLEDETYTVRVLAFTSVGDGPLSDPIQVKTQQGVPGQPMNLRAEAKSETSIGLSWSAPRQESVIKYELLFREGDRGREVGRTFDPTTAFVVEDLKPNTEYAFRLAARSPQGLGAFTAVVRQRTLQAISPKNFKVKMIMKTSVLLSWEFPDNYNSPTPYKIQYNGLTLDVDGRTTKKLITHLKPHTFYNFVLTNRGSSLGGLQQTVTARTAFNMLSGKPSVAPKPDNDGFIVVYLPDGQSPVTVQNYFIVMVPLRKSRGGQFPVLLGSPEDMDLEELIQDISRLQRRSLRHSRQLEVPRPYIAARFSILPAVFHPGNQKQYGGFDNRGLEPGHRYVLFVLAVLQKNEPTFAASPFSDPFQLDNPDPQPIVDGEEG
Protocol: Analysis of binding between RPTPσ sEcto-Fc and Glypican-2 or Neurocan alkaline phosphate (AP) fusion proteins was performed as described previously (S2, S26). All fusion proteins were produced in transiently transfected 293T cells. Briefly, the RPTPσ Fc-fusion protein was immobilised on 96-well Reactibind Protein A-coated plates (Pierce) and incubated with soluble proteoglycan-AP proteins which had been normalized for equal input AP activity. AP activity was determined by measuring substrate turnover on a microplate reader as described (S27, S28). […] In FIG. 23, the binding between RPTPσ-Fc and heparin-derived size-fractionated oligosaccharides with different lengths (HS6, HS8, HS10, HS17, HS23, HS30 and HS67, corresponding to hexasaccharide, octasaccharide, decasaccharide, or approximately 17, 23, 30 and 67 saccharide units; molecular weights 1,800 Da, 3,000 Da, 5,000 Da, 7,000 Da, 9,000 Da, and 20,000 Da; Neoparin) was analyzed with RPTPσ-Fc immobilised on 96-well Reactibind Protein A-coated plates (Pierce) and incubated with soluble biotinalated HS. The bound HS was quantified by AP enzyme activity following incubation with streptavidin-AP (Promega). […]

[3] = tested on: RPTPσ−/− P8 mouse DRG neurons; assay: DRG neurite outgrowth assay in RPTPσ−/− neurons; assay type: cell-based; details: neurocan 5 μg/ml or glypican-2 30 μg/ml; 48 hours
Protocol: (§1) DRGs of P8-12 RPTPσ^+/+ or RPTPσ^−/− mice were cut off from all roots. Neurons were dissociated and subjected to neurite outgrowth assays and analysis as described previously (S2). For experiments in FIG. 1, recombinant mouse Neurocan (5800-NC, R&D Systems) was used at 5 μg/ml and recombinant mouse Glypican-2 (2355-GP, R&D Systems) at 30 μg/ml. In FIG. 5, 30 μg/ml of Glypican-2 was pre-incubated with 1 unit/ml of Heparitinase III (HPNIII, H8891, Sigma) at 37° C. for 4 hrs where indicated, prior to use in outgrowth assays. For experiments in FIG. 19, recombinant mouse glypican-2 was used at 5 μg/ml, and Chondroitin Sulfate Proteoglycan mixture (CSPG, CC117, Millipore) was at 125 μg/ml. For experiments in FIGS. 24 and 25, Chondroitin Sulfate Proteoglycan mixture (CSPG, CC117, Millipore) was at 60 μg/ml, with or without the addition of HS at indicated length and concentration (1 μM for all HS in […]). Proteoglycans and heparin oligosaccharides were added to neuronal cultures 30 min after seeding and were replenished 24 hrs later. At 48 hrs after seeding, cells were fixed and immunostained with anti-GAP43 antibody (NB300-143, Novus). The whole of each well was scanned with a fluorescence microscope and the images were then analyzed for total neurite outgrowth using the Metamorph program.

[4] = tested on: wild-type mouse DRG neurons; assay: DRG neurite outgrowth assay (GAP-43 immunostaining, total neurite outgrowth); assay type: cell-based; details: for effect on neurite outgrowth of wild-type neurons: poly-D-lysine/laminin supplemented with neurocan 5 μg/ml or glypican-2 30 μg/ml
Protocol: as §1

[5] = molecular target: Mouse RPTPσ sEcto-Fc (mouse) (UniProt B0V2N1); assay: solid phase binding assay, immobilised mouse RPTPσ sEcto-Fc, bound AP activity; Kd from the binding curve, one-to-one binding assumed; Scatchard inset; remark: listed apart in the source

Question: For Neurocan-alkaline phosphatase, which Kd [1] is on record?
Answer: The Kd was 21.2 nM.

Question: “recombinant mouse Neurocan (5800-NC, R&D Systems) (from UniProt P55066 23-637)” was tested. Which decrease in outgrowth of wild-type DRG neurons (neurite outgrowth assay) [2] did it give?
Answer: Its decrease in outgrowth of wild-type DRG neurons (neurite outgrowth assay) is 60%.

B1: glypican-2: a representative HSPG; Glypican2-AP fusion in binding assays, recombinant mouse Glypican-2 (2355-GP, R&D Systems) in outgrowth assays (protein)
chain: HGSEAKVVRSCAETRQVLGARGYSLNLIPPSLISGEHLQVCPQEYTCCSSETEQKLIRDAEVTFRGLVEDSGSFLIHTLAARHRKFNEFFREMLSISQHSLAQLFSHSYGRLYSQHAVIFNSLFSGLRDYYEKSGEGLDDTLADFWAQLLERAFPLLHPQYSFPPDFLLCLTRLTSTADGSLQPFGDSPRRLRLQISRALVAARALVQGLETGRNVVSEALKVPVLEGCRQALMRLIGCPLCRGVPSLMPCRGFCLNVAHGCLSSRGLEPEWGGYLDGLLLLAEKLQGPFSFELAAESIGVKISEGLMHLQENSVKVSAKVFQECGTPHPVQSRSRRAPAPREEASRSWRASAEEERPTTAAGTNLHRLVWELRERLSRVRGFWAGLPVTVCGDSRMAADLSQETAPCWTGVGRGRYMSPVVVGSLNEQLHNPELDTSSPDVPTRRRRLHLRAATARMKAAALGQDLDMHDADEDASGSGGGQQYADDWKAGAVPVVPPARPPRPPRPPRRDGLGVRGGSGSARYNQGRSRNLGS
Question: Which “binding to RPTPσ after enzymatic removal of GAG chains” value (mouse RPTPσ sEcto-Fc) does the source give for B1 here?
Answer: The value was “dramatically reduced binding”.

Question: And the “effect on neurite outgrowth of RPTPσ−/− neurons compared with wild-type” value [3]?
Answer: The value was “reduced to undetectable levels”.

Question: And the “neurite outgrowth relative to control at lower concentration” value ([4]; glypican-2 5 μg/ml, wild-type P10 DRG neurons (FIG. 19))?
Answer: The value was “promoted outgrowth to a lesser extent”.

Question: And the “growth-promoting effect after heparitinase III treatment” value ([4]; glypican-2 30 μg/ml pre-incubated with 1 unit/ml HPNIII)?
Answer: The value was “significantly reduced its growth-promoting ability; also recorded: did not completely eliminate the growth promoting effect”.

Question: And the “effect on neurite outgrowth of wild-type neurons” value ([4]; 48 hours)?
Answer: The value was “strongly promoted outgrowth; also recorded: promotion of outgrowth”.

B2: Glypican-2-AP (protein, mouse, UniProt Q8BKV1 22-555, looked up, not shown: large carriers)
chain: HGSEAKVVRSCAETRQVLGARGYSLNLIPPSLISGEHLQVCPQEYTCCSSETEQKLIRDAEVTFRGLVEDSGSFLIHTLAARHRKFNEFFREMLSISQHSLAQLFSHSYGRLYSQHAVIFNSLFSGLRDYYEKSGEGLDDTLADFWAQLLERAFPLLHPQYSFPPDFLLCLTRLTSTADGSLQPFGDSPRRLRLQISRALVAARALVQGLETGRNVVSEALKVPVLEGCRQALMRLIGCPLCRGVPSLMPCRGFCLNVAHGCLSSRGLEPEWGGYLDGLLLLAEKLQGPFSFELAAESIGVKISEGLMHLQENSVKVSAKVFQECGTPHPVQSRSRRAPAPREEASRSWRASAEEERPTTAAGTNLHRLVWELRERLSRVRGFWAGLPVTVCGDSRMAADLSQETAPCWTGVGRGRYMSPVVVGSLNEQLHNPELDTSSPDVPTRRRRLHLRAATARMKAAALGQDLDMHDADEDASGSGGGQQYADDWKAGAVPVVPPARPPRPPRPPRRDGLGVRGGSGSARYNQGRSRNLG
modifications: carries heparan sulfate GAG chains (removed by heparitinase III)
Question: B2 was tested. Which Kd [5] did it give?
Answer: Its Kd is 10.5 nM.

B3: neurocan: a representative CSPG; Neurocan-AP fusion in binding assays, recombinant mouse Neurocan (5800-NC, R&D Systems) in outgrowth assays (protein)
chain: DQDTQDTTATEKGLRMLKSGSGPVRAALAELVALPCFFTLQPRLSSLRDIPRIKWTKVQTASGQRQDLPILVAKDNVVRVAKGWQGRVSLPAYPRHRANATLLLGPLRASDSGLYRCQVVKGIEDEQDLVTLEVTGVVFHYRAARDRYALTFAEAQEACRLSSATIAAPRHLQAAFEDGFDNCDAGWLSDRTVRYPITQSRPGCYGDRSSLPGVRSYGRRDPQELYDVYCFARELGGEVFYVGPARRLTLAGARAQCQRQGAALASVGQLHLAWHEGLDQCDPGWLADGSVRYPIQTPRRRCGGPAPGVRTVYRFANRTGFPAPGARFDAYCFRAHHHTAQHGDSEIPSSGDEGEIVSAEGPPGRELKPSLGEQEVIAPDFQEPLMSSGEGEPPDLTWTQAPEETLGSTPGGPTLASWPSSEKWLFTGAPSSMGVSSPSDMGVDMEATTPLGTQVAPTPTMRRGRFKGLNGRHFQQQGPEDQLPEVAEPSAQPPTLGATANHMRPSAATEASESDQSHSPWAILTNEVDEPGAGSLGSRSLPESLMWSPSLISPSVPSTESTPSPKPGAAEAPSVKSAIPHLPRLPSEPPAPSPGPSEALSAVSLQASSADGSPD
Question: B3 was tested. Which “binding to RPTPσ after enzymatic removal of GAG chains” value (mouse RPTPσ sEcto-Fc) did it give?
Answer: Its value is “dramatically reduced binding”.

Question: What about the “effect on neurite outgrowth of RPTPσ−/− neurons compared with wild-type” value [3] of the same molecule?
Answer: Its value is “inhibitory effect was decreased”.

Question: And the “effect on neurite outgrowth of wild-type neurons” value ([4]; 48 hours)?
Answer: The value was “inhibition”.

Question: And the “reduction of neurite outgrowth” value ([4]; wild-type DRG neurons, neurocan 5 μg/ml, 48 hours)?
Answer: The value was “approximately 60%”.
